Laboratory results: patent US7060495 (AVENTIS PHARMA DEUTSCHLAND, dated 2006)

How the values were obtained:
[1] = target: T1, polymorphic epithelial mucin (PEM) (UniProt P15941 24-1097, limits assumed); test: specificity enzyme activity test: antigen-coated plate, bound fusion protein detected by its β-glucuronidase activity on 4-methylumbelliferyl β-glucuronide
T1 construct: Control antigen in the specificity enzyme activity test
Description: (§1) The test determines the liberation of 4-methylumbelliferone from 4-methylumbelliferyl β-glucuronide by the β-glucuronidase portion of the fusion protein after the fusion protein has been bound via the sFv portion to an antigen. The measured fluorescence values are reported as relative fluorescence units (FU).

[2] = target: T2, carcinoembryonic antigen (CEA) (UniProt P06731 35-685, limits assumed); test: specificity enzyme activity test (refers to Example 5)
T2 construct: Tumor-associated antigen coated on microtiter plates in the specificity enzyme activity test
T2 sequence (looked up): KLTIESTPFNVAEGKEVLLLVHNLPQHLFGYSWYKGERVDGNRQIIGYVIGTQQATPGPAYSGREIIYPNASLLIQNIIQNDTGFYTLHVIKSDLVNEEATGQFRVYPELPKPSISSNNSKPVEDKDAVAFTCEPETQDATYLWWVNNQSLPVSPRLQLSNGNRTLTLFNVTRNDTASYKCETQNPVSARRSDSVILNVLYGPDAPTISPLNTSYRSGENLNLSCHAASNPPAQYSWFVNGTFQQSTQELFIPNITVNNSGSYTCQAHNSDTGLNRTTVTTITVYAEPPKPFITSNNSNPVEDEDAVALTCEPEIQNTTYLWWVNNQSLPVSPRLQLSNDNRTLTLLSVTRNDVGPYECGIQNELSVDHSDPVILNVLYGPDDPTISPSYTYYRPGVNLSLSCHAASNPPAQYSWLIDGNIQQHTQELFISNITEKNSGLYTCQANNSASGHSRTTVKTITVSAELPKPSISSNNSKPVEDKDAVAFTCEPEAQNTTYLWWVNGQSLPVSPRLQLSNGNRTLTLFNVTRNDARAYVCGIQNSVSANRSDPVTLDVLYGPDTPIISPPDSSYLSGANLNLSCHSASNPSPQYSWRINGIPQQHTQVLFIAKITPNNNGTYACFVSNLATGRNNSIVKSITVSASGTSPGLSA
Description: as §1

T1 sequence (P15941 24-1097 limits assumed): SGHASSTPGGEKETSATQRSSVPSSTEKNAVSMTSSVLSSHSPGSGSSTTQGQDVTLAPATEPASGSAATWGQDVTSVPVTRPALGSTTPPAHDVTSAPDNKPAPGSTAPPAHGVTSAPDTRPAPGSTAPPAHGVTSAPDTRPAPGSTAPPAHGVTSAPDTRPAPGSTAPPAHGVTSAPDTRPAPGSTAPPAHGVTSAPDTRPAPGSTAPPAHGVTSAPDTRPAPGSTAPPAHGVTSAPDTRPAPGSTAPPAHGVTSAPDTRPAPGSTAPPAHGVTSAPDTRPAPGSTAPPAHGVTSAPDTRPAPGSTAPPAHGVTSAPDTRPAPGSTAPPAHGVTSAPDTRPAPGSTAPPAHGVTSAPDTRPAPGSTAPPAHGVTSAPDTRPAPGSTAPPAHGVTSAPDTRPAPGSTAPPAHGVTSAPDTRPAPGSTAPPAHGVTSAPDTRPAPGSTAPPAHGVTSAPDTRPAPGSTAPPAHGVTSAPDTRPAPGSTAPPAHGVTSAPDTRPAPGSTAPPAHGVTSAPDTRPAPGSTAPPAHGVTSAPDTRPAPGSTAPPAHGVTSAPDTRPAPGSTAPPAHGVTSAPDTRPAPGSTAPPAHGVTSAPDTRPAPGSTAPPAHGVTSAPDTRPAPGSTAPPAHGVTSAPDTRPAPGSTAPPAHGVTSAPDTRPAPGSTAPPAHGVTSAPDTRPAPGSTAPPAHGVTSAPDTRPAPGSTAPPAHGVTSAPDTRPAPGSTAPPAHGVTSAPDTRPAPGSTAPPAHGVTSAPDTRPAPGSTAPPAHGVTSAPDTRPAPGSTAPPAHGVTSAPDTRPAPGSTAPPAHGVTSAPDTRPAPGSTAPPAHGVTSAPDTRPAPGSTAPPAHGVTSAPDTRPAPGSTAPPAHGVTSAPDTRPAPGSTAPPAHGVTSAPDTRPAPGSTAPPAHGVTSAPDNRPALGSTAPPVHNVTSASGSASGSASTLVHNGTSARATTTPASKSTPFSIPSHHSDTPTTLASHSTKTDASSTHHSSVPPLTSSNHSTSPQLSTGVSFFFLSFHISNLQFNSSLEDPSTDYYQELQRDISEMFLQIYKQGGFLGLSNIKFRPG

binding result [1]: no binding
binding result [2]: binds
B1: sFv-huβ-Gluc fusion protein (humanized sFv 431/26 against CEA linked via a hinge to human β-glucuronidase, expressed in BHK cells) (other)
chain: QVQLQESGPGLVRPSQTLSLTCTVSGFTISSGYSWHWVRQPPGRGLEWIGYIQYSGITNYNPSLKSRVTMLVDTSKNQFSLRLSSVTAADTAVYYCAREDYDYHWYFDVWGQGTTVTVSSGGGGSGGGGSGGGGSDIQLTQSPSSLSASVGDRVTITCSTSSSVSYMHWYQQKPGKAPKLLIYSTSNLASGVPSRFSGSGSGTDFTFTISSLQPEDIATYYCHQWSSYPTFGQGTKLEIKELKTPLGDTTHTCPRCPAAAAVQGGMLYPQESPSRECKELDGLWSFRADFSDNRRRGFEEQWYRRPLWESGPTVDMPVPSSFNDISQDWRLRHFVGWVWYEREVILPERWTQDLRTRVVLRIGSAHSYAIVWVNGVDTLEHEGGYLPFEADISNLVQVGPLPSRLRITIAINNTLTPTTLPPGTIQYLTDTSKYPKGYFVQNTYFDFFNYAGLQRSVLLYTTPTTYIDDITVTTSVEQDSGLVNYQISVKGSNLFKLEVRLLDAENKVVANGTGTQGQLKVPGVSLWWPYLMHERPAYLYSLEVQLTAQTSLGPVSDFYTLPVGIRTVAVTKSQFLINGKPFYFHGVNKHEDADIRGKGFDWPLLVKDFNLLRWLGANAFRTSHYPYAEEVMQMCDRYGIVVIDECPGVGLALPQFFNNVSLHHHMQVMEEVVRRDKNHPAVVMWSVANEPASHLESAGYYLKMVIAHTKSLDPSRPVTFVSNSNYAADKGAPYVDVICLNSYYSWYHDYGHLELIQLQLATQFENWYKKYQKPIIQSEYGAETIAGFHQDPPLMFTEEYQKSLLEQYHLGLDQKRRKYVVGELIWNFADFMTEQSPTRVLGNKKGIFTRQRQPKSAAFLLRERYWKIANETRYPHSVAKSQCLENSPFT
modifications: glycosylated (galactose, mannose and other carbohydrates, Table 2)
notes: scFv-enzyme fusion
